In the DeepSol protein solubility set:

Assay: soluble on expression in E. coli; label from the status in PepcDB or PDB records

Row | Sequence | soluble on expression in E. coli
1 | MSQRIIQPSASDQQFPGKSDGYEYTVGPKQAITSEASTTYIPSRIYSESLLFKRQEASLSAMAFLFQEMISQLHRTCKTAGDFETKLSDYGHNIGIRLLELLNFRASVSPSSLPRASAFLSQNESSSKLSNASNSPGMLANSSTATSASANERLQEKQTESLSNYITKMRRRDLKILDILQFIHGTLWSYLFNHVSDDLVKSSERDNEYMIVDNFPTLTQFIPGENVSCEYFVCGIIKGFLFNAGFPCGVTAHRMPQGGHSQRTVYLIQFDRQVLDREGLRFG | soluble
2 | MSQTNESFAALFEESIARSNMKAGEVISAEVVRIDHNFVVVNAGLKSEAFVPVEEFLNDQGELEVQVGDYVSVAIDALENGYGDTILSRDKAKRLASWLNLEKALESGEIISGTVTGKVKGGLTVMVNGIRAFLPGSLVDVRPIKDTTPYEGKTLEFKVIKLDRKRNNVVLSRRAVVEATLGEERQKLMETLKEGAIVNGIVKNITDYGAFVDLGGIDGLLHITDLAWRRVRHPSEVLSVGQEITAKILKFDQEKNRVSLGVKQLGEDPWVGISRRYPQGTRLFGKVTNLTDYGAFVEIEAGIEGLVHVSEMDWTNKNVAPSKVVQLGDEVEVMVLDIDEDKRRISLGMKQCKANPWDDFARNHKKGDKLAGQIKSITDFGVFIGLPGGIDGLVHLSDLSWQETGEEAVRKYKKGDEVEAVVLAIDVEKERISLGIKQLSGDPFNNFISANDKGSIVSVTIKTVDPKGAVVQLADDVEGYLRASEISSDRVEDARNVLKEGETMTAMIVNIDRKSRNINVSIKAKDSADQQEAMQKFAQDTGTAGTTNLGALLKAKLNETNQLEHHHHHH | soluble
3 | MSQVFKDFDLSSVWKTNSWADENYKEAPFTPEILAAVESELGYKLPQSFIELMAVQNGGIFVKNCFPTTQRNSWAENHVQICEVSGIGFEKEGSLCGAMGQKLWLEEWEYPPIGVYFANDPSGGHAMFALDYRACGKDGEPKVVFVEQESDFEIVELAPDFETFIRSLRHEDEFIDEEI | not soluble
4 | MSQVQEQHISESQLQYGNGSLMSTVPADLSQSVVDGNGNGSSEDIEATNGSGDGGGLQEQAEAQGEMEDEAYDEAALGSFVPIEKLQVNGITMADVKKLRESGLHTAEAVAYAPRKDLLEIKGISEAKADKLLNEAARLVPMGFVTAADFHMRRSELICLTTGSKNLDTLLGGGVETGSITELFGEFRTGKSQLCHTLAVTCQIPLDIGGGEGKCLYIDTEGTFRPVRLVSIAQRFGLDPDDALNNVAYARAYNADHQLRLLDAAAQMMSESRFSLIVVDSVMALYRTDFSGRGELSARQMHLAKFMRALQRLADQFGVAVVVTNQVVAQVDGGMAFNPDPKKPIGGNIMAYSSTTRLGFKKGKGCQRLCKVVDSPCLPEAECVFAIYEDGVGDPREEDE | soluble
5 | MSRDNQEIKAPEESSAEEQKEMDDKVTSPEKAEEIKLKSRYPNIGPKPGGSDFLRKRLQKGQKYFDSGDYNMAKAKMKNKQLPTAAPDKTEVTGDHIPTPQDLPQRKPSLVASKLAG | soluble
6 | MSRFVQDLSKAMSQDGASQFQEVILQELELSVKKELEKILTTAASHEFEHTKKDLDGFRKLFHRFLQEKGPSVDWGKIQRPPEDSIQPYEKIKARGLPDNISSVLNKLVVVKLNGGLGTSMGCKGPKSLIGVRNENTFLDLTVQQIEHLNKTYNTDVPLVLMNSFNTDEDTKKILQKYNHCRVKIYTFNQSRYPRINKESLLPIAKDVSYSGENTEAWYPPGHGDIYASFYNSGLLDTFIEEGKEYIFVSNIDNLGATVDLYILNHLMNPPNGKRCEFVMEVTNKTRADVKGGTLTQYEGKLRLVEIAQVPKAHVDEFKSVSKFKIFNTNNLWISLGAVKRLQEQNAIDMEIIVNPKTLDGGLNVIQLETAVGAAIKSFENSLGINVPRSRFLPVKTTSDLLLVMSNLYSLNAGSLTMSEKREFPTVPLVKLGSSFTKVQDYLRRFESIPDMLELDHLTVSGDVTFGKNVSLKGTVIIIANHGDRIDIPPGAVLENKIVSGNLRILDH | soluble
7 | MSRGFALLGWLNPAQRQAVTAPCGHLCINAAAGTGKTTTVAARILWLQLVQDVPPEAILAVTFSRAARAHLLDRVEAFTRVLGAGGAVPTFTLHGLAYRILRIAIGAGETWLRPGFGVISVGRDRINPLLQEHAADLLGDLSDPWDLPTRVEQYSRALDAVRQGCADIEEGLPLEPDDLPDGVLYVPARIETPNLRKVWRRYNRMLRARNYLDYPGMVTEAILALYREGKTLQRARANLEYIIVDEYQDTSRAQEELIQLLVGERTSVTVVGDSDQAIYTFNGADIGNILHFAERILETGSALPVLEPVHLVENYRSSACILDAANRVLDRIHGPGRKQLVPYPGTVDEPVESYRRRNLEVVRVHAGSLDQAAFWAASEIARLVTEEGIEPSDIAVLVRKDTEHAPQGRAVRLALERLGIRAEEQERDPIRSSHVYEVVRDLCGDPDYYGEDIGDMIERIAAGEFRDALGDVTPDEATALLREAQAAGAEFAGEVVDFVFEQGAPDATPASLEGVQVRTIHSAKGLEFRVVFLMYLSDREFPHGAHPDVAEERRLYYVGLTRAQERLYVLGQPGVRNEDFFGAIDGSGVVTVHVEPWRDRSPSSEEAVDDETLRLIQEARRRQHDMFLRRP | soluble
8 | MSRHWPLFDLRITTPRLQLQLPTEELCDQLIDTILEGVHDPDRMPFSVPWTRASREDLPFNTLSHLWQQLAGFKRDDWSLPLAVLVDGRAVGVQALSSKDFPITRQVDSGSWLGLRYQGHGYGTEMRAAVLYFAFAELEAQVATSRSFVDNPASIAVSRRNGYRDNGLDRVAREGAMAEALLFRLTRDDWQRHRTVEVRVDGFDRCRPLFGPLEPPRY | soluble
9 | MSRKNILQGLMAGTPSPAPAAAERPRATKGAIGAVSRSIADLKARAVIEVDPFLIDAGGLQDRLESDAAEDAELARSIATYGQQVPVLVRPHPTDENRFQIVYGRRRVLALRDLGQPVKALVRDLDDREAVLAQGQENTARRDLSFIEKVNFARQMADAGYDRKAICDALSVDKTLISRMVSVSERVPVALIEAIGAASGIGRDRWLALAELMEKTDDDLDTLISTMSLTAEGQGSDQRFEALFSYLSGQRRREPPAPLRTEPITGHDGRPLGDVSRGAASVVLRLRRSHAKGFEEWLLQNLPDLHRSWQSDRNGK | not soluble
10 | MSRKNISLTESLEEYIFRNSVREPDSFLKLRKETGTLAQANMQISPEEGQFLNILTKISGAKRIIEIGTFTGYSSLCFASALPEDGKILCCDVSEEWTNVARKYWKENGLENKIFLKLGSALETLQVLIDSKSAPSWASDFAFGPSSIDLFFLDADKENYPNYYPLILKLLKPGGLLIADNVLWDGSVADLSHQEPSTVGIRKFNELVYNDSLVDVSLVPIADGVSLVRKRLEHHHHHH | soluble
11 | MSRLLSGGVGVIFAVLFSVNVGNARDQIQITGSSTVLPYQKIVAEIFGEIYPHFKIPVIESGGTGGGIKEFCRGIGENAIDIVNASRAMKLSELQSCFDAGVKDVEEIRIGYDGIVFATDINGPDWKLQPVDIYRALAARIMKDGKLQSNNVSKWSAVNSALPGWTIAAYIPGEKH | not soluble
12 | MSRNQNHEEYQDDTRPLSIEEQRARLRQLIIMGKERGYITYSEINDALPDDMSDADQIDNIVSMISGLGIQVTEHAPDAEDILLSDNAAVTDDDAVEEAEAALSSADSEFGRTTDPVRMYMREMGQVDLLTREDEIIIAKKIENALKNMVQAISACPGSIAEILELIEKIRKDEIRVDEVVEAIIDPNEVLLNELGLGHLETTAPEKPSNDNSDENEDDEESEEDADEISAANLAELKQKVIGHFAQIEKDYKKMIGRLEKHHSRHKDYLAYRDAIANKLLEVRFATRQIDSLSSSLRGKVENIRKLEREIRDICLDRVHMERDYFIQNFLPEITNLEWIEEEIAKGRVWSDALDRFRHAILEKQTELADMEKETRISIEELKEINKNMVSSEKETAAAKQEMIQANLRLVISIAKKYTNRGLQFLDLIQEGNIGLMKAVDKFEYRRGYKFSTYATWWIRQAITRSIADQARTIRIPVHMIETINKMNRISRQHLQETGEEPDSAKLAELMQMPEDKIRKIMKIAKEPISMETPIGDDDDSHLGDFIEDANNVAPADAAMYTSLHEVTKEILESLTPREAKVLRMRFGIDMNTDHTLEEVGRQFDVTRERIRQIEAKALRKLRHPTRSDRLRSFLDSEDSKL | soluble
13 | MSRQDPRTIEFLESVGKGEIPPSLVQQYPGKEIDFKVNRHHEEYVAPKMKPFGGSGVRLGNVVPTVLGQSSSSATTAGTSSATTDHNPDHTAENEAKQLEDAKKELSTNMNEPTTNIQIRLPNNQRLVGIFNHSHTLEAVRTFICTARPDMIYAPFQMMAAYPPKPFEDESQTLKDANVLNSVVAVKILPTTN | not soluble
14 | MSRRGLEREGGKPVSSDAKGLKRVDVRLKWDPSPWDRPPHHLDIIATTYAADAPHGRPVYVVQFDKRSPDGTINMSRHSRTGQGFGFVEEMTFELDRLSPSIARVIVGVAIHQDNGHKTFDDVSNTGVVVAEGYRELLTDGFERVAGATAATVAEFTRNASGAWEFREAVRGFDSDPVLFATEMGSAPRP | soluble
15 | MSRVERLPNGLVVALEERDFPGVAFQLLVPAGAVNDPEGMEGAAALLEGWLWKGAGDLDARALAQALDALGVRRSSGAGLEYTAFAAAFLPEVLDEVFRLYALLLTRPRLPEEGLEAVGHVALQALLSLEDQPARKLLSELRRKVFRSPHGREPLGREEGLKGARAEALKADYRRRYTPKGAILAVAGGVSWERLRAALEPFLAWEGEEALYPAPELSEPHRFVLRRPTAQVQIGLAYPDVGPEDPGFYAARLALEVLSGGMSSRLFTEVREKRGLVYAVSAFPAGVKGQGLLMAYAGTTKERAGETLEVLRAEVERLAEGVTEEELFRAKVGLKTALVMADESIRSRAASMARDLYMLGRVRSLSEIEAAIEGTSLEAVNAFLRAHPYRDPWVGLLGEVEDV | soluble
16 | MSSCVNTSQTGPKKKISFIIRDEHEYSNRSAVSALQYDAQNGRLFTGGSDTIIRTWSVPHHKDAFSARGGVRSPGKNSPVQYQGSLEQHTDWVNDMILCGHGKILISASNDTTVKVWNIERDNKHGFIDCIRTHKDYVSCLAYAPIVEKAVSASFDHNIFVYDINANFKTVNNLIGCKDSIYSLATTPNLSLVLGAGTEKCIRLFDPRTNEKIMKLRGHTDNVRALVVNDDGTRALSAGSDATIRLWDIGQQRCIATCIAHEEGVWTLQVDSSFTTVYSAGKDKMVVKTPLYDFTKSQLLFKEEAPVKKLLLSEKDNPVSLWVGTWKSDIKRWSIRPSAQLSIGGDEDGPSTSNANHSVSASSSPPVTFKYIRVKDQKGQQSTPELVIPGAPAIKKHAMLSDKRHVLTRDSDGNVALYDVLAARKIKDYGKRIFEEVVDENSRQVYIPSWFVVDSKSGMLQITLDELDALSSWLSSKDAGFDDNDRETKLNYGGMMLRSLFERWPPCKMTNVDAADADDVQKATLNFISLPEHTPLIICEGNGRPLYRLLVGDAGKEFEANELAQIAPMWVIDAIERNQLPKFNKMPFYLLPHPSTNPKQPKKDRLSATEMLQVKKVMEHVYEKILSTNDDITVGSIPLNQIHTKMEMYCNDQRLEPDMDLRTVKHLYWKQSGELLLHYKPVK | not soluble
17 | MSSFSESALEKKLSELSNSQHSVQTLSLWLIHHRKHAGPIVSVWHRELRKAKSNRKLTFLYLANDVIQNSKRKGPEFTREFESVLVDAFSHVAREADEGCKKPLERLLNIWQERSVYGGEFIQQLKLSMEDSKSPPPKATEEKKSLKRTFQQIQEEEDDDYPGSYSPQDPSAGPLLTEELIKALQDLENAASGDATVRQKIASLPQEVQDVSLLEKITDKEAAERLSKTVDEACLLLAEYNGRLAAELEDRRQLARMLVEYTQNQKDVLSEKEKKLEEYKQKLARVTQVRKELKSHIQSLPDLSLLPNVTGGLAPLPSAGDLFSTD | soluble
18 | MSSGDQNRGGVADKALQLVLEMKRNPDVLPPYNTELVRQCYQKIDELFQKNAAVVEKIRAGLPHDSTLLQPRLAAMCHIRRCMMAYVNERKNRIRSFRWKYGGALPASVRNALCDAEIQFFNEYSSTLARFQSNLGEGGVNLLLHSAPPKSLFVQVRALEDYGEFETSDGTQVQLSKDSLHSLPRQDCEMLIRQGVLELVH | not soluble
